The target of assay [1] is T1, HDAC4 (H863L)-VP16 fusion protein (pACT-HDAC4 (H863L)) (human, UniProt P56524 1-1084).
T1 construct: also called HDAC4 dominant negative variant (H863L)
The assay is described as follows: mammalian two-hybrid (CheckMate), pG5-Luc luciferase in Jurkat cells.

For assay [2], the target named is HDAC4-VP16 fusion protein (pACT-HDAC4) (human, UniProt P56524 1-1084). The description is as above.

B1: GAL4-N-CoR (RD3) fusion protein (pBIND-N-CoR(RD3)) (other, not shown: large carriers)
chain: EVLQPAPHQVITNLPEGVRLPTTRPTRPPPPLIPSSKTTVASEKPSFIMGGSISQGTPGTYLTSHNQASYTQETPKPSVGSISLGLPRQQESAKSATLPYIKQEEFSPRSQNSQPEGLLVRAQHEGVVRGTAGAIQEGSITRGTPTSKISVESIPSLRGSITQGTPALPQTGIPTEALVKGSISRMPIEDSSPEKGREEAASKGHVIYEGKSGHILSYDNIKNAREGTRSPRTAHEISLKRSYESVEGNIKQGMSMRESPVSAPLEGLICRALPRGSPHSDLKERTVLSGSIMQGTPRATTESFEDGLKYPKQIKRESPPIRAFEGAITKGKPYDGITTIKEMGRSIHEIPRQDILTQESRKTPEVVQSTRPIIEGSISQGTPIKFDNNSGQSAIKHNVKSLITGPSKLSRGMPPLEIVPENIKVVERGKYEDVKAGETVRSRHTSVVSSGPSVLRSTLHEAPKAQLSPGIYDDTSARRTPVSYQN
notes: The cloned fragment carried the variation L1014V (numbered on full-length N-CoR); also called pBND-N-CoR (RD3)
Consider B1, for which the binding result in assay [1] is listed as “no binding”; in assay [2], “binds”.
